The results in this text go back to the nanobody polyreactivity screen of Harvey et al. (2022).

This data set can be described thus: yeast display, Sf9 membrane polyspecificity reagent, FACS + sequencing; frameworks hold sequencing errors. An outline of the steps: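 Synthetic nanobody libraries on Saccharomyces cerevisiae BJ5465 were galactose-induced for 36–48 hours, stained 1 hour at 4 °C with 10% biotinylated, detergent-solubilized Sf9 membrane reagent and enriched on streptavidin microbeads. FACS then separated cells into low and high (top ~1%) gates by anti-HA (expression) and streptavidin (reagent binding) fluorescence. Genes were colony-PCR amplified, MiSeq 2 × 250 sequenced and CDR-length filtered. A clone's polyreactivity label is that of its gate of origin.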
Regarding “QVQLVESGGGLDQAGGSLRLSCAASGYTFPYYTMGWYRQAPGKESELVATITRRGDSTYYADSVKGRFTISRDNAKNTVYLQMNSLKPEDTAVYYCNTASYGRHHFRKSSKMDYWGQGTQVTVSS”, the “polyreactivity (PSR sort gate)” value is on record as “high polyreactivity”. The result for “QVQLVESGGGLDQAGGSLRLSCAASGYVMGWYRQAPGKERELVASITRGTSTYYADSVKGRFTISRDNAKNTVYLQMNSLKPEDTAVYYCAARTTSGEWPPGKIGTYLYDYWGQGTQVTVSS” reads “low polyreactivity”.

For “QVQLVESGGGLDQAGGSLRLSCADSASTFYRYAKGWSRQAPGKEWELVAAITRTGGSTYADSVKGRFTISRDNAKNTVYLQMNSLKPEDTAVYFCAVQRYFVSSISPFYYWGQGTQVTVSS”, the “polyreactivity (PSR sort gate)” value was “low polyreactivity”.

Turning to “QVQLVESGGGLDQAGGSLRLSCADSGSIFYVYTMGWYRQAPGKERELVAAITSGDGTYYADSVKGRFTISRDNAKSTVYLQMNSLKPEDTAVYYCNADESAYWKLRHGLGSDSWGQGTQVTVSS”, the “polyreactivity (PSR sort gate)” value is “low polyreactivity”. With “QVQLVESGGGLDQAGGSLRLSCAPSGSTFVGYALGWYRQAPGKERELVAAITRGGGSTYYADSVKGRFTISRDNAKNTVYLQMNSLKPEDTAVYYCAAYQHPGLRTSYEYWGQGTQVTVSS”, the “polyreactivity (PSR sort gate)” value is on record as “low polyreactivity”. For “QVQLVESGGGLDQAGGSLRLSCDASGGTFLSYAMGWYRQAHGKERELVARINSGSSTYYADSVKGRFTISRDNAKNTVYLQMNSLKPEDTAVYYCATRWVSRTHGYWGQGTQVTVSS” the value was “low polyreactivity”. For “QVQLVESGGGLDQAGGSLRLSCPASGRTISRNTMGWYRPAPGKERELVAGITYGGDRTYYADSVKGRFTISRDNAKNTVYLQMNSLKPEDTAVYYCAAPWYWKGLRDYWGQGTQVTVSS” the value was “low polyreactivity”; for “QVQLVESGGGLDQAGGSLRLSCPASGSTFSNYAMGWYRQEPGKERELVAAISVRGGSTYYADSVKGRFTISRDNAKNTVYLQMNSLKPEDTAVYYCNADTDYRDDMDYWGQGTQVTVSS”, “high polyreactivity”; for “QVQLVESGGGLDQAGGSLRLSCSASGITFKSYAMGWYTQSPGKEREVVAAISRRGGSTYYADSVKGRFTISRDNAKNTVYLQMNSLKQEDTAVYFFAADSGREPKGPSRLTYWGQGTQVTVSS”, “high polyreactivity”. Turning to “QVQLVESGGGLDQAGGSLRLSWAASAFIFGLYAMGWYRQAPGKERELVAAITSVESTKYADSVKGRFTISRDHAKNTVYLQMNSLKPEDTAVYYCATDWSLEDDYWGQGTQVTVSS”, the “polyreactivity (PSR sort gate)” value is “low polyreactivity”. Take “QVQLVESGGGLDQAGGSLRLTCAPYGLISDRNAIGWYRQAPGKERDLVASIRSGGSTYYADSVKGRFTFSRDNAKNTVYLEMNSLKPEDTAVYYCAAGGGHTPVSYYLVPYMDYWGQGTQVTVAS”: the “polyreactivity (PSR sort gate)” value is “low polyreactivity”. For “QVQLVESGGGLDQAGVRLRLSCAASGRIFISYAMGWYRQAPGNDTELVARISTRGGSTYYADSVKGRFTISRDNAKNTVYLQMNSLKPDDTAVYYCAADHHFCQYPGGGNRWYYYWGQGTHVTVSS” the value was “high polyreactivity”; for “QVQLVESGGGLDQAGVSLRLSCAATGRIFYHYAMGWYRHEPGKERELVASITTSGDSTYYADSVKGRFTISRDTAKNTVYLQMNSLKPEDTAVYYCAARSYRGSRYDYWGQGTQVTVSS”, “high polyreactivity”; for “QVQLVESGGGLEQAGGRLRLICAASGRTFDRYPMGWYRQAPGKESELVAAITWSGGRTYYADSVKGRFTISRDNAKNTVYLQMNSLKPEDTAVYYCAADNSYRGYHSPYEYWGQGTQVTVSS”, “low polyreactivity”. Regarding “QVQLVESGGGLFEEGGSLRISCAASGRIFAPYAMGWYRHAPGKERELVAAISWSDVSTDYAVSVKGRFTISRDNAKNTVYLQMYSLKPEVTAVYYCAAAYAGYRGWYYYWGQVTQVTVSS”, the “polyreactivity (PSR sort gate)” value is “high polyreactivity”. For “QVQLVESGGGLFHAGGSLRLSCAASGSTFGGNDMGWSIQAPGKERELVASISDGGRTNYADSVKGRFTISRDNAKNTVYLQMNSLKPEDTAVYYCAADYAPVAFDYWGQGTQVTVSS” the value was “low polyreactivity”. In the case of “QVQLVESGGGLFHAGGSLRLSCPDSGSTFYRYTMGCYRQAPGKERELVAAITSGGGTDYADSVKARFTISRDNAKNTVYLQLISLKPEDTAVYFCADFLSWRDYYLYWRGSWREDYWGQGTQVTVSS”, the “polyreactivity (PSR sort gate)” value is listed as “low polyreactivity”. As for “QVQLVESGGGLFKAGGSLRLSCAASGFNFSNYAKGWYRQAPGKERELVATISWSGGRTYYADSVKGRFTISRDNAKNTVYLQMNSLKPEDTEVYYCAAEYYTGYFKYDYWGQGTQVTVSS”, the “polyreactivity (PSR sort gate)” value is “high polyreactivity”. The result for “QVQLVESGGGLFQAGGILRLSCAASGIIFWDNAMGWYRQAPGKERELVAAISRSGSRTYYADSVKGRFTISRDNAKNTVYLQMNSLKPEDTAVYYCARRYRARGSMYYWGQGTQVTVSS” reads “high polyreactivity”; that for “QVQLVESGGGLFQAGGRLRLSCAPSGFNFGGYVMGWYRQAPGKDRELVAAISSSGGITHYADSVKGRFTISRDNANNTVYLQMNSLKPEDTEVYYCNALYRKRYYWGQGTQVTVSS”, “high polyreactivity”. For “QVQLVESGGGLFQAGGSHRLSCAASGSTFKQYAMGWYRQAPGKERELVAAIDRGGSTYYADSVKGRFTITRDNAKITVYLQMTSLKPEDTAVYYCAARFVQYRYAYDYWGQGTQVTVSS” the value was “low polyreactivity”; for “QVQLVESGGGLFQAGGSLRISCAASGRIFTKNTMGWYRQPPWKERELFAAIRSRAGSTYYADSVKGRFTISRDNAKNTVYLQMNSLKPEDTAFYYCAVPWFRSVDFDYWGQGTQVTVSS”, “low polyreactivity”. For “QVQLVESGGGLFQAGGSLRLICAASGSTFRFYAMGWYRQAPAKERELVAVIRSTGSTYYADSVKGRFTISRDNAKNTVYLQMYSLNPDDTAVYYCAAQNAWWSNGRSYDYWGQGTQVTVSS”, the “polyreactivity (PSR sort gate)” value is given as “low polyreactivity”. For “QVQLVESGGGLFQAGGSLRLSCAASGFIFRSNAMGGYRHAPGKERELVAAISGGGITYYADSVKGRFTISRDNAKNTVYLQMNSLKPEDTAVYYCAVRWYFKTHWGGYHPYEYCGQGTQVTVSS” the value was “high polyreactivity”. The result for “QVQLVESGGGLFQAGGSLRLSCAASGFTFTRYAMGWYRQAPGKERELVATITKRGGSTYYADSVKGRFTISRDNAKNTVYLQMNRLKPEDTAVYYCAADGASRALYDYWGQGTQVTVSS” reads “high polyreactivity”; that for “QVQLVESGGGLFQAGGSLRLSCAASGGIFDVYDMGWYRQAPGKERELVAAISEKGGSTYYADSVKGRFTISRDNAKNTGYLQMNSLKPEDTAVYYCAADYVCLSVFSYWAWYDYWGQGTQVNVSS”, “low polyreactivity”. In the case of “QVQLVESGGGLFQAGGSLRLSCAASGGIFYGNVMGWYRQAPGKERELVADITSVGSTYYADSVKGRFTISRDNAKNTVYLQMNSLIPEDTAVYYCAAEPDHVADSHSGYDYWGQGTQVTVSS”, the “polyreactivity (PSR sort gate)” value is given as “low polyreactivity”. For “QVQLVESGGGLFQAGGSLRLSCAASGIIFTSYAMGWYRQAPGKESEFVAAITRSGSRTYYADSVKGRFTISRDNAKNTVYLQMNRLKPEDTAVYYCAARTYHDSSDSYAGGYWGQGTQVTVSS” the value was “low polyreactivity”; for “QVQLVESGGGLFQAGGSLRLSCAASGIIFYDYAMGRYRQPPAKERELVAAITSNGDNTYYADSVKWRFTISRDNAKNTVYLQMNILKPEDTAVYYCAVDGSFAADFDNYLEEYGYWGQGTQVTVSS”, “low polyreactivity”; for “QVQLVESGGGLFQAGGSLRLSCAASGITFKGYTMGWYRQAPGKERELVATISRGGRTYADSVKGRFTISRDNAKNTVLLQMNSLKPEDTAVYYCAADKYWAQNDYWGQGTQVTVSS”, “low polyreactivity”. Consider “QVQLVESGGGLFQAGGSLRLSCAASGRIFGWYAMGWYRQAPGKDRELVAAMSSSTSTYYADSVKGRFTISRDNEKNTVYLEMNSLKPEDTAVYYCNADWYYQRGQNYWFRYDYWGQGTQVTVCS”, for which the “polyreactivity (PSR sort gate)” value was “high polyreactivity”.

Consider “QVQLVESGGGLFQAGGSLRLSCAASGRIFGYNSMGWDRQAPGKERELVAAIRRRGGTTYYADSVKGRFTISRDNAKNTVYLQMNSLKPEDNAVYYCAADLTFSYRQSAGRYSTYGYWGQGTQVTVSS”, for which the “polyreactivity (PSR sort gate)” value is listed as “high polyreactivity”. Regarding “QVQLVESGGGLFQAGGSLRLSCAASGRTFAIYDMGWYRQAPGKEREVVAAIDYSDGSTYYADSVKGRFTISRDNAKNTVYLQMNSLKPEDTAVYYCAADYDAIYLWWGYDYWGQGTQVTVSS”, the “polyreactivity (PSR sort gate)” value is on record as “low polyreactivity”. For “QVQLVESGGGLFQAGGSLRLSCAASGRTFEINAMGWYRQAPGKERELVARISWSGGRTYYADSVKGRFTISRDNAKNTVYLQMNSLKPEDTAVYYCAAVLYSGGNYDSWGQGTQVTGSS” the value was “high polyreactivity”; for “QVQLVESGGGLFQAGGSLRLSCAASGRTFGKNAMGWYRQAPGKEREFVAAITSRGGSTYYADSVKGRFTISRDNAKNTVYLQMNSLNPEDTGVYYCNREYKRPSQRNEHFYCGQGTQVTVSS”, “low polyreactivity”. The result for “QVQLVESGGGLFQAGGSLRLSCAASGRTFGYNVMGWYRQATGKERELVAGITSSGSTNYADSVKGRFTISRDNVKNTFYLQMNSLKPEETAVYYCAAGDRRWGFQVGYWGQGTQVTVSS” reads “high polyreactivity”; that for “QVQLVESGGGLFQAGGSLRLSCAASGRTFRDYVMGWYRKATGKERELVAAISTRGASTYYADSVKGRFTISRDNAKNTVDLQMNSLKPEDTAVYYCAARSTRRGNEYDYWGQGTQVTGSS”, “high polyreactivity”. Consider “QVQLVESGGGLFQAGGSLRLSCAASGRTFRSYAMGWYRQAPGKERELVAAISTGGSTYYADSVKGRFTISRDNAKNTVYLQMNSLKPEDTAVYYCAAEFNAYTPAGLWYTYYYWGQGTQVTVSS”, for which the “polyreactivity (PSR sort gate)” value is on record as “high polyreactivity”. Consider “QVQLVESGGGLFQAGGSLRLSCAASGRTFTWYAMGWYRQAPGKERELVAAISFSGGSTYYADSVKGRFTISRDNAKNTVYLQMNSLKPEDTAVYYCARPSGDAWEGPRMDYWGQGTQVTVSS”, for which the “polyreactivity (PSR sort gate)” value is reported as “low polyreactivity”. With “QVQLVESGGGLFQAGGSLRLSCAASGRTFWRYAMGWSRQAPGKERELVAAITSGGGSTFYADSVKGRFTISRDYAKNTVDLQMNILKAEVTAVYYCNREYRWGNSLYSRYDYWGQGTQVTVSS”, the “polyreactivity (PSR sort gate)” value is recorded as “high polyreactivity”.
